The source of these data is patent US20240277861A1, “ANTI-HEPATITIS B VIRUS AGENT TARGETING HOST FACTOR LIPG” (PUROTECH BIO, INC., priority 2021, published 2024).

Common to all, as to format: cell-based
Test [1] relates to HBV. Nature of the test: HBV attachment, uptake and replication in Huh7-LIPG cells. Particulars: Huh7-LIPG cells infected with HBV, 3 days after treatment. The method, then:
(§1) HBV-DNA and cccDNA were quantified by qPCR as described below. Total DNA was extracted from cells using DNeasy Blood & Tissue Kit (Qiagen, Hilden, Germany). HBV-DNA was quantified by qPCR analysis as previously reported (Honda. M. et al., J. Infect. Dis., 213, 1096-1106, 2016). The extracted DNA (50 ng) was treated with 10 U of Plasmid safe DNase I (Epicentre, Madison. WI) at 37° C. for 60 minutes and then treated at 70° C. for 30 minutes for DNase inactivation, cccDNA was quantified by qPCR analysis as previously reported (Honda, M. et al., J. Infect. Dis. 213, 1096-1106, 2016). Quantitative RT-PCR was performed as described below. The GenElute™ Mammalian Total RNA Miniprep Kit (Sigma-Aldrich) was used for extraction of total RNA, and the High Capacity cDNA Reverse Transcription Kit (Applied Biosystems, Carlsbad, CA) was used for cDNA synthesis. The 7500 Real Time PCR System (Applied Biosystems) was used for RT-PCR. Primers 5′-[…]-3′ (SEQ ID NO: 31) and 5′-[…]-3′ (SEQ ID NO: 32) and a probe 5′-FAM-[…]-MGB-3′ (SEQ ID NO: 33) were used for pregenomic RNA. Primer pairs and probes for LIPG, NTCP. 18SrRNA, and ACTB were obtained from the TaqMan assay reagents library.
When the abundance of LIPG expression was compared among different liver cell lines. […] HepG2-NTCP-C4 cells with overexpression of FLAG-LIPG (HepG2-NTCP-C4-LIPG cells) were established (FIG. 2B), and the attachment and uptake of HBV into cells were assayed in the resulting cells. Heparin, which has been reported to inhibit HBV attachment (Schulze. A. et al., Hepatology 46: 1759-1768, 2007), and heparanase, an endo-β-D-glucuronidase that cleaves the heparan sulfate side chain in heparan sulfate proteoglycans (HSPGs) (Bame, KJ. Glycobiology,11: 91R-98R,2001), were used as control compounds. […] HBV attachment was detected by qPCR of HBV-DNA at 3 hours after HBV inoculation at 4° C. in the presence or absence of the compound (heparin or heparanase). […]

Test [2] relates to HBV. The test is described as follows: HBV attachment and uptake assay in HepG2-NTCP-C4-LIPG cells. To be noted: pretreated 1 hour. The method, then:
as §1
When the abundance of LIPG expression was compared among different liver cell lines. […] HepG2-NTCP-C4 cells with overexpression of FLAG-LIPG (HepG2-NTCP-C4-LIPG cells) were established (FIG. 2B), and the attachment and uptake of HBV into cells were assayed in the resulting cells. Heparin, which has been reported to inhibit HBV attachment (Schulze. A. et al., Hepatology 46: 1759-1768, 2007), and heparanase, an endo-β-D-glucuronidase that cleaves the heparan sulfate side chain in heparan sulfate proteoglycans (HSPGs) (Bame, KJ. Glycobiology,11: 91R-98R,2001), were used as control compounds. Cells (HepG2-NTCP-C4-LIPG cells and HepG2-NTCP-C4 control cells) were pretreated with these compounds for 1 hour and then with HBV at 4° C. for 3 hours to allow HBV to attach the cells, washed to wash out HBV, and further incubated at 37° C. for 12 hours to detect uptake of HBV (FIG. 2C). In addition, the cells were further cultured in a conventional culture medium for 3 days after HBV inoculation to detect HBV DNA and cccDNA in the cells (FIG. 2C). HBV attachment was detected by qPCR of HBV-DNA at 3 hours after HBV inoculation at 4° C. in the presence or absence of the compound (heparin or heparanase). HBV attachment (FIG. 2D), uptake (FIG. 2E), and replication of HBV DNA and cccDNA (FIGS. 2F and 2G) were all increased in the HepG2-NTCP-C4-LIPG cells compared to the HepG2-NTCP-C4 control cells.
Next, the effect of a LIPG inhibitor (GSK-264220A) on HBV attachment and uptake was examined. […] At the same time, this inhibitor had no effect on HepG2-NTCP-C4 control cells.

The subject of test [3] is HBV. Nature of the test: Anti-HBV activities of LIPG-binding peptides delivered into PXB cells-2 (scFv fusions, 4% PEG). To be noted: presence of 4% PEG. The procedure: (§2) An infection source medium was prepared by adding the HBV-infected chimeric mouse serum (PhoenixBio), DMSO, and a PEG 8000 solution to the PXB cell culture medium (PhoenixBio) at final concentrations of 5 genome equivalents/cell, 2%, and 4%, respectively. Various synthesized peptides were diluted to different concentrations in this medium, and the resulting media were added individually to PXB cells (PhoenixBio). After the cells were left to stand in a 5% CO2 incubator at 37° C. for 20 to 28 hours, the medium was removed and the wells were washed once with PBS(−). DMSO and one of the various synthesized peptides were added to the PXB cell culture medium at a final concentration of 2% and different concentrations, respectively, and the resulting media were added individually to the PXB cells to perform medium exchange. This medium exchange was performed at 1, 5, and 9 days post infection and samples were collected at 14 days post infection.
(§3) SMI TEST™ M EX-R&D (Medical & Biological Laboratories) was used to extract DNA from the samples. The extracted DNA was used as a template for quantitative PCR of HBV-DNA. For cccDNA detection, the extracted DNA was treated with T5 exonuclease (New England Biolabs), and the resulting DNA was used as a template for quantitative PCR. The T5 exonuclease treatment was performed at 37° C. for 30 minutes, and the DNase was later inactivated by heating at 80° C. for 15 minutes. The following primer set was used for detection.
The anti-HBV activities of LIPG-binding peptides delivered into cells were evaluated using PXB cells and anti-ASGR single-chain antibody-LIPG-binding peptide fusions. The anti-HBV activity was evaluated in the presence of 4% PEG. The evaluation of the anti-HBV effect in the presence of PEG is more stringent than under the conditions in Example 18 without the presence of PEG because the HBV-DNA and cccDNA copy numbers are increased in the presence of PEG. Of the fusions prepared in Example 16, 10M-LN4SN, 10M-LN4N, 10M-LLNTSN, and 10M-LLNTSN-S39 were used. According to the timeline shown in FIG. 42A, the anti-HBV activities of the fusions were evaluated using the methods described in “(10-5) Infection experiment using PXB cells” and “(10-6) Quantification of HBV-DNA and cccDNA”.

Test [4] deals with HBV. The test is described as follows: Anti-HBV activities of LIPG-binding peptides delivered into PXB cells-1 (scFv fusions). To be noted: for HBV-DNA copy number: peptide concentrations (nM) indicated in FIG. 41B; for cccDNA copy number: peptide concentrations (nM) indicated in FIG. 41C. The method, then: as §2, §3
The anti-HBV activities of LIPG-binding peptides delivered into cells were evaluated using PXB cells and anti-ASGR single-chain antibody-LIPG-binding peptide fusions. Of the fusions prepared in Example 16, 10M-L23N, 10M-L23SN. 10M-L23SN-S39, and 10M-LNTSN were used. According to the timeline shown in FIG. 41A, the anti-HBV activities of the fusions were evaluated using the methods described in “(10-5) Infection experiment using PXB cells” and “(10-6) Quantification of HBV-DNA and cccDNA”.

Consider `CCN(c1nc(N)c(C(=O)N=C(N)N)nc1Cl)C(C)C` [5-(N-ethyl-N-isopropyl)amiloride], for which the “LIPG-mediated increase in HBV replication (cccDNA)” value with HBV [1] is listed as “no effect”. Still for that read-out and setting: the same measure for `CN(C)CCCN1c2ccccc2Sc2ccc(Cl)cc21` [chlorpromazine]: “no effect”. On to heparanase, for which the “increase in HBV attachment, uptake, and replication of HBV DNA and cccDNA in LIPG-overexpressing cells” value in the test with HBV [2] is “reduced this increase to the same level as the control”. Still for that read-out and setting: the same measure for heparin: “reduced this increase to the same level as the control”.

B1: 10M-LLNTSN-S39: fusion of ASGR3-10M scFv, cleavage sequence, LIPH4-LNTNBs, S39, nuclear localization signal (SEQ ID NO: 132) (protein)
chain: RVRRLNCRHNTAGDYKDDDDKHHHHHHHPFVIGAGVLGALGTGIGGITTSTQFYYKLSQELNGDMERPAAKRVKLD
modifications: cleavage sequence + LIPH4-NTNBs + Flag-tag + His-tag + S39 + nuclear localization signal
Regarding B1, in the test with HBV [3], the HBV-DNA copy number entry is given as “remarkably reduced” and the cccDNA copy number entry is listed as “remarkably reduced”.

B2: 10M-L23SN: fusion of ASGR3-10M scFv, cleavage sequence, LIPH4-23s, S28, nuclear localization signal (SEQ ID NO: 128) (protein)
chain: RVRRLNCRDNTRDYKDDDDKHHHHHHHPFVIGAGVLGALGTGIGGITTSTQFYYKPAAKRVKLD
modifications: cleavage sequence + LIPH4-23S + Flag-tag + His-tag + S28 + nuclear localization signal
With B2, in the test with HBV [4], the HBV-DNA copy number entry is listed as “remarkably reduced” and the cccDNA copy number result was “remarkably reduced”.

B3: 10M-L23N: fusion of anti-ASGR scFv ASGR3-10M, cleavage sequence, LIPH4-23, S28, nuclear localization signal (SEQ ID NO: 127) (protein)
chain: RVRRLNCRDNTRPVMSAMTCDYKDDDDKHHHHHHHPFVIGAGVLGALGTGIGGITTSTQFYYKPAAKRVKLD
modifications: cleavage sequence + LIPH4-23 + Flag-tag + His-tag + S28 + nuclear localization signal
Turning to B3, in the test with HBV [4], the HBV-DNA copy number result was “remarkably reduced” and the cccDNA copy number result is recorded as “remarkably reduced”.

B4: 10M-L23SN-S39: fusion of ASGR3-10M scFv, cleavage sequence, LIPH4-23s, S39, nuclear localization signal (SEQ ID NO: 129) (protein)
chain: RVRRLNCRDNTRDYKDDDDKHHHHHHHPFVIGAGVLGALGTGIGGITTSTQFYYKLSQELNGDMERPAAKRVKLD
modifications: cleavage sequence + LIPH4-23S + Flag-tag + His-tag + S39 + nuclear localization signal
For the molecule B4, the “HBV-DNA and cccDNA copy numbers” value in the test on HBV [4] (added concentrations 2.5 to 25 nM) was “remarkably reduced”. In addition, in the test with HBV [4], the HBV-DNA copy number entry was “remarkably reduced” and the cccDNA copy number result is “remarkably reduced”.
